Key:
[1] = target: T1, IL-7Rγc subunit (Homo sapiens, UniProt P31785); experiment: Competitive binding assays, specific binding site on the IL-7Rγc subunit; details: against Rγc ligands SEQ ID NO: 461-465
T1 sequence (P31785 23-369): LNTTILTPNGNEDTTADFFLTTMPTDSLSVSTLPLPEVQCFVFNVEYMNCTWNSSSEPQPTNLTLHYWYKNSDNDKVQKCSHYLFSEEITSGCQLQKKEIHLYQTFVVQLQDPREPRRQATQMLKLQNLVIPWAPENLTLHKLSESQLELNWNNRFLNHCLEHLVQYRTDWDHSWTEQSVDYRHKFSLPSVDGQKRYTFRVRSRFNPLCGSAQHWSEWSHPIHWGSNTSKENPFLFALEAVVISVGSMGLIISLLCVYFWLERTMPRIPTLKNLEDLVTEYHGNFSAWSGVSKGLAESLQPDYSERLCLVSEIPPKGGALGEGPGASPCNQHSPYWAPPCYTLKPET
Source text: The specific binding site of the IL-7Rγc subunit for these Rγc ligands can be characterized using competitive binding assays.

[2] = target: T2, IL-7Rα subunit (Homo sapiens, UniProt P16871); experiment: Competitive binding assays, unique binding site on the IL-7Rα subunit; details: against IL-7Rα ligands SEQ ID NO: 455-459
T2 sequence (P16871 21-459): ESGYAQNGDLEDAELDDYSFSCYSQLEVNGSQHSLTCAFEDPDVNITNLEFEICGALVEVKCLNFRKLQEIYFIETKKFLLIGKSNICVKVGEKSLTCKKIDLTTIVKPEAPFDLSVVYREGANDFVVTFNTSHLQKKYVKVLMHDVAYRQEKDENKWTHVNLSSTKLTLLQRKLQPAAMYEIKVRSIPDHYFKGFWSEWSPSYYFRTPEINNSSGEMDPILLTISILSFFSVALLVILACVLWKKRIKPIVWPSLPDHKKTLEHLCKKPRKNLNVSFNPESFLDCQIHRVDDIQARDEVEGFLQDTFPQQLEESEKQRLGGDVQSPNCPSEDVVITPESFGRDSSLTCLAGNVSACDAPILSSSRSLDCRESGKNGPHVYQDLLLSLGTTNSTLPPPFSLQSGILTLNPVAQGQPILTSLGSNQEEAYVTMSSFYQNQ
Source text: The unique binding site of the IL-7Rα subunit for these IL-7Rα ligands can be characterized using competitive binding assays as described, for example, in Example 12.

competition for binding to the specific binding site on the IL-7Rγc subunit with the group of Rγc ligands [1]	competition for binding to the unique binding site on the IL-7Rα subunit with the group of IL-7Rα ligands [2]	Substance
does not compete	–	SEQ ID NO: 460: An IL-7Rα ligand having the amino acid sequence of SEQ ID NO: 460; sequence not printed in the text (YDCRIAQVGELCDL)
–	does not compete	V V C Q D W E G V E L C W Q (VVCQDWEGVELCWQ) [SEQ ID NO: 261]

Source: patent US20240100159A1, “USE OF IL-7R-ALPHA-GAMMA AGONIST PEPTIDES IN CELL MANUFACTURING” (MEDIKINE, INC., priority 2022, published 2024)
